Reference: IntAct's records for PubMed 31515488

B1: Sodium channel modifier 1 (Homo sapiens), Q9BWG6 (parent)
chain: MSFKREGDDWSQLNVLKKRRVGDLLASYIPEDEALMLRDGRFACAICPHRPVLDTLAMLTAHRAGKKHLSSLQLFYGKKQPGKERKQNPKHQNELRREETKAEAPLLTQTRLITQSALHRAPHYNSCCRRKYRPEAPGPSVSLSPMPPSEVKLQSGKISREPEPAAGPQAEESATVSAPAPMSPTRRRALDHYLTLRSSGWIPDGRGRWVKDENVEFDSDEEEPPDLPLD
partner: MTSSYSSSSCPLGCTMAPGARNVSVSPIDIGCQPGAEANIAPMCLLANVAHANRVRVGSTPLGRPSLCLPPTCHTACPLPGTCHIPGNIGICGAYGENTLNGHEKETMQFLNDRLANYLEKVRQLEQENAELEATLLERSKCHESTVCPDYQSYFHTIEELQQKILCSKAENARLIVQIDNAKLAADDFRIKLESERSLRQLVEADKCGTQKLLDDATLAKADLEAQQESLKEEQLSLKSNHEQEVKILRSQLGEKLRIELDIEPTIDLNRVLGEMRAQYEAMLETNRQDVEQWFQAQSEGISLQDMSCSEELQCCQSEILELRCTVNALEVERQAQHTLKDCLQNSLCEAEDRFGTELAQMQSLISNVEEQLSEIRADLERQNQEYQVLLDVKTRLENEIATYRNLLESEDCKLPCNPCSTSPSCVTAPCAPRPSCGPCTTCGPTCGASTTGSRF
B2: Adiponectin (Homo sapiens), Q15848 (parent)
chain: MLLLGAVLLLLALPGHDQETTTQGPGVLLPLPKGACTGWMAGIPGHPGHNGAPGRDGRDGTPGEKGEKGDPGLIGPKGDIGETGVPGAEGPRGFPGIQGRKGEPGEGAYVYRSAFSVGLETYVTIPNMPIRFTKIFYNQQNHYDGSTGKFHCNIPGLYYFAYHITVYMKDVKVSLFKKDKAMLFTYDQYQENNVDQASGSVLLHLEVGDQVWLQVYGEGERNGLYADNDNDSTFTGFLLYHDTN
B3: Zinc finger protein RFP (Homo sapiens), P14373 (parent)
chain: MASGSVAECLQQETTCPVCLQYFAEPMMLDCGHNICCACLARCWGTAETNVSCPQCRETFPQRHMRPNRHLANVTQLVKQLRTERPSGPGGEMGVCEKHREPLKLYCEEDQMPICVVCDRSREHRGHSVLPLEEAVEGFKEQIQNQLDHLKRVKDLKKRRRAQGEQARAELLSLTQMEREKIVWEFEQLYHSLKEHEYRLLARLEELDLAIYNSINGAITQFSCNISHLSSLIAQLEEKQQQPTRELLQDIGDTLSRAERIRIPEPWITPPDLQEKIHIFAQKCLFLTESLKQFTEKMQSDMEKIQELREAQLYSVDVTLDPDTAYPSLILSDNLRQVRYSYLQQDLPDNPERFNLFPCVLGSPCFIAGRHYWEVEVGDKAKWTIGVCEDSVCRKGGVTSAPQNGFWAVSLWYGKEYWALTSPMTALPLRTPLQRVGIFLDYDAGEVSFYNVTERCHTFTFSHATFCGPVRPYFSLSYSGGKSAAPLIICPMSGIDGFSGHVGNHGHSMETSP
partner: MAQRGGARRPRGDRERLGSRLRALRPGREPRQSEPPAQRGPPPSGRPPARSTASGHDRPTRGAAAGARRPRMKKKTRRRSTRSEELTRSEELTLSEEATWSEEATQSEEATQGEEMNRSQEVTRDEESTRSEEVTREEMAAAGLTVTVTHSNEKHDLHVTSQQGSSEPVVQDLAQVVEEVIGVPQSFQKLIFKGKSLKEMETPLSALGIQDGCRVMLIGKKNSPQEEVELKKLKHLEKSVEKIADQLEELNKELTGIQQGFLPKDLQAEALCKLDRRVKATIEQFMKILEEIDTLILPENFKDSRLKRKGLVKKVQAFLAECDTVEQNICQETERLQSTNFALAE
B4: Sorting nexin-15 (Homo sapiens), Q9NRS6 (parent)
chain: MSRQAKDDFLRHYTVSDPRTHPKGYTEYKVTAQFISKKDPEDVKEVVVWKRYSDFRKLHGDLAYTHRNLFRRLEEFPAFPRAQVFGRFEASVIEERRKGAEDLLRFTVHIPALNNSPQLKEFFRGGEVTRPLEVSRDLHILPPPLIPTPPPDDPRLSQLLPAERRGLEELEVPVDPPPSSPAQEALDLLFNCESTEEASGSPARGPLTEAELALFDPFSKEEGAAPSPTHVAELATMEVESARLDQEPWEPGGQEEEEDGEGGPTPAYLSQATELITQALRDEKAGAYAAALQGYRDGVHVLLQGVPSDPLPARQEGVKKKAAEYLKRAEEILRLHLSQLPP
B5: Ubiquitin-like protein 4B (Homo sapiens), Q8N7F7 (parent)
chain: MFLTVKLLLGQRCSLKVSGQESVATLKRLVSRRLKVPEEQQHLLFRGQLLEDDKHLSDYCIGPNASINVIMQPLEKMALKEAHQPQTQPLWHQLGLVLAKHFEPQDAKAVLQLLRQEHEERLQKISLEHLEQLAQYLLAEEPHVEPAGERELEAKARPQSSCDMEEKEEAAADQ
partner: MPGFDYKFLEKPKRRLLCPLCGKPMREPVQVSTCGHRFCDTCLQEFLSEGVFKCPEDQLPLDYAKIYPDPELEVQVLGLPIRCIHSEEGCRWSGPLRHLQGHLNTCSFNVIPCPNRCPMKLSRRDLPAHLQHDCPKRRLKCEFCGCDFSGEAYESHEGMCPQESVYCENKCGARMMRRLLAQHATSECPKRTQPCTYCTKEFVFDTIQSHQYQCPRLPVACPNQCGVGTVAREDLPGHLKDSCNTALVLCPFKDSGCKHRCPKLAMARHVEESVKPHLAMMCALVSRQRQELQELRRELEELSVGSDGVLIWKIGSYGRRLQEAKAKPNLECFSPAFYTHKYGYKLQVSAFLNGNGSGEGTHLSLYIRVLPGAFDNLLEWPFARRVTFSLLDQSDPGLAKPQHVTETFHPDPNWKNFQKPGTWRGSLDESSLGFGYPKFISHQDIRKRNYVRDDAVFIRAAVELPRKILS
B6: Segment polarity protein dishevelled homolog DVL-2 (Homo sapiens), O14641 (parent)
chain: MAGSSTGGGGVGETKVIYHLDEEETPYLVKIPVPAERITLGDFKSVLQRPAGAKYFFKSMDQDFGVVKEEISDDNARLPCFNGRVVSWLVSSDNPQPEMAPPVHEPRAELAPPAPPLPPLPPERTSGIGDSRPPSFHPNVSSSHENLEPETETESVVSLRRERPRRRDSSEHGAGGHRTGGPSRLERHLAGYESSSTLMTSELESTSLGDSDEEDTMSRFSSSTEQSSASRLLKRHRRRRKQRPPRLERTSSFSSVTDSTMSLNIITVTLNMEKYNFLGISIVGQSNERGDGGIYIGSIMKGGAVAADGRIEPGDMLLQVNDMNFENMSNDDAVRVLRDIVHKPGPIVLTVAKCWDPSPQAYFTLPRNEPIQPIDPAAWVSHSAALTGTFPAYPGSSSMSTITSGSSLPDGCEGRGLSVHTDMASVTKAMAAPESGLEVRDRMWLKITIPNAFLGSDVVDWLYHHVEGFPERREARKYASGLLKAGLIRHTVNKITFSEQCYYVFGDLSGGCESYLVNLSLNDNDGSSGASDQDTLAPLPGATPWPLLPTFSYQYPAPHPYSPQPPPYHELSSYTYGGGSASSQHSEGSRSSGSTRSDGGAGRTGRPEERAPESKSGSGSESEPSSRGGSLRRGGEASGTSDGGPPPSRGSTGGAPNLRAHPGLHPYGPPPGMALPYNPMMVVMMPPPPPPVPPAVQPPGAPPVRDLGSVPPELTASRQSFHMAMGNPSEFFVDVM
partner: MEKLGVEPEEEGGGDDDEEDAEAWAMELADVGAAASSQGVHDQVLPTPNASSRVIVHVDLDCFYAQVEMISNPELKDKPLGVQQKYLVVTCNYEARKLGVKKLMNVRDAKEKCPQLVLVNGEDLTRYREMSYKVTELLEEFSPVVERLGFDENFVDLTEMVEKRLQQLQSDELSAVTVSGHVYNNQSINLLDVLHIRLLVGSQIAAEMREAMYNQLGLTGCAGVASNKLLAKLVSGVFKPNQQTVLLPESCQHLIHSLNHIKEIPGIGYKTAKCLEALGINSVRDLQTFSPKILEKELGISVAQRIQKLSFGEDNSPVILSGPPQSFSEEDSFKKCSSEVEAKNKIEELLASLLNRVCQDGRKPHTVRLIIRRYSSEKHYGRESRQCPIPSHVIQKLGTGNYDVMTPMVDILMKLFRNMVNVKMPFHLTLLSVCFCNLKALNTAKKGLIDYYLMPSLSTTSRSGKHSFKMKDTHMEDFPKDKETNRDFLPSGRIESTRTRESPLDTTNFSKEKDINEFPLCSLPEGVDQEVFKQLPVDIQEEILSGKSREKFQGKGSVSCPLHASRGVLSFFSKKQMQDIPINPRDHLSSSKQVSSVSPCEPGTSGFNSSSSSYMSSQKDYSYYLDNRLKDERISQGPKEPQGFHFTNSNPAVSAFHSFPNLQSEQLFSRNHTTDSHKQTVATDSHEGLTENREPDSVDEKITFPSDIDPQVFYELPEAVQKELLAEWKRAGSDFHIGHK
B7: Protein mab-21-like 3 (Homo sapiens), Q8N8X9 (parent)
chain: MKYLTVGDLEDCLLNKVDLRRQQISQAVEEVQKVVHHLTTNISNQDIRFQAVPYSDTYNENIKVLAPSQFLVTVPIKGLAGYREAREQHWRYYTLQGTRLPCPLRDPEGLQQWLEVEQFMKSLWQWHETDVNIDGDIVPAKVLLVFRKLVENAVRTCHLSGKVSLLGNRSAVWVAVETSAYQVELELVPAVEIPTTWSKKARWPRCLQRWPSQERVECIKSFGFNLLACSNYHWQLSFLRAEQVLLEQLDEDGGCRRKCFQVMRHLKEDIWCPGNRPVITSHHLQTVLFWTCEKYPHFKDWQVFSKAFLRLVRKLHKCVSQHFLKHYFVRNSNLFQCTNPTELDTVAQKLATFLKNPQIGPP
partner: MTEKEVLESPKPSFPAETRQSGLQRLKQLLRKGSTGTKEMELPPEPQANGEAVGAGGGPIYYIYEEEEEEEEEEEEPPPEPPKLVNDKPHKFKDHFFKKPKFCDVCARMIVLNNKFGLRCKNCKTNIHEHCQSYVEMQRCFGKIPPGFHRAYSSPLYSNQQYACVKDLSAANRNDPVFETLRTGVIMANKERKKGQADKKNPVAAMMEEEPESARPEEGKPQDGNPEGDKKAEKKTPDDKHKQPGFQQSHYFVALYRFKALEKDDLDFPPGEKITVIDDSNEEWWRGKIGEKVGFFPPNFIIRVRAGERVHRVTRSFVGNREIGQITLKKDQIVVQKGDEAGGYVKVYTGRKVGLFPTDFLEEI

Variants of: B1
Conditions: with krt38_human KRT38, O76015

Row | Variant | effect of a mutation on the interaction
1 | A174V | with no effect

Variants of: B2
Conditions: with sgta_human SGTA

Row | Variant | effect of a mutation on the interaction
2 | Y111H | with no effect

Variants of: B3
Conditions: with bag1_human BAG1, Q99933

Row | Variant | effect of a mutation on the interaction
3 | N355S | with no effect

Variants of: B4
Conditions: with reep6_human REEP6, Q96HR9
Sequence of reep6_human REEP6, Q96HR9 (Q96HR9 whole entry): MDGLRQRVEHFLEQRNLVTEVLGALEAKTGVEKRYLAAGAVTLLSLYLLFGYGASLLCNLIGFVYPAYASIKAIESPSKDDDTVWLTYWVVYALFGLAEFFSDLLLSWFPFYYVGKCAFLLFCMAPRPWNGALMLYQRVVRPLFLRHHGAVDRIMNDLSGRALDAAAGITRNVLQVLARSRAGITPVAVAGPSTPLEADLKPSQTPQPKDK

Row | Variant | effect of a mutation on the interaction
4 | R314C | with no effect
5 | R334C | with no effect

Variants of: B4
Conditions: with ar6p1_human ARL6IP1, Q15041
Sequence of ar6p1_human ARL6IP1, Q15041 (Q15041 whole entry): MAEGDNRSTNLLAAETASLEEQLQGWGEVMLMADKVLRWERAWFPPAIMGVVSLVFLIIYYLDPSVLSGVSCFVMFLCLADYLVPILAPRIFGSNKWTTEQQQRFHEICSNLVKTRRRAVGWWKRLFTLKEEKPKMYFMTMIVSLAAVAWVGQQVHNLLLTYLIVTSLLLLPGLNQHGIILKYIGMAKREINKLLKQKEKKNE

Row | Variant | effect of a mutation on the interaction
6 | R314C | with no effect
7 | R334C | with no effect

Variants of: B5
Conditions: with traf4_human TRAF4, Q9BUZ4

Row | Variant | effect of a mutation on the interaction
8 | R121H | disrupting interaction strength

Variants of: B6
Conditions: with poli_human POLI

Row | Variant | effect of a mutation on the interaction
9 | A53V | with no effect
10 | T535I | with no effect

Variants of: B7
Conditions: with stac3_human STAC3, Q96MF2

Row | Variant | effect of a mutation on the interaction
11 | T338A | with no effect
